Results taken from paper PMC9463231 (2022).

Experiments:
Assay in all cases: SPR
biotinylated mouse FcγRI = biological target: T1, biotinylated mouse FcγRI (mouse, UniProt P26151 25-297, biotin)
T1 chain: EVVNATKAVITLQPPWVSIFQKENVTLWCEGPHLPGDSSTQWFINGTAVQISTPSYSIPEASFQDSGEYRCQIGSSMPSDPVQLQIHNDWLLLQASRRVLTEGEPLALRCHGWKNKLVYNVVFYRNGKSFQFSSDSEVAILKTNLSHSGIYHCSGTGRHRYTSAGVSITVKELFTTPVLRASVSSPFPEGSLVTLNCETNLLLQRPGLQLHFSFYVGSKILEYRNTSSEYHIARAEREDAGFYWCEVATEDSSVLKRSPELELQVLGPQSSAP

[1] = biological target: T2, biotinylated mouse FcγRIV (mouse, UniProt A0A0B4J1G0 21-203, biotin)
T2 chain: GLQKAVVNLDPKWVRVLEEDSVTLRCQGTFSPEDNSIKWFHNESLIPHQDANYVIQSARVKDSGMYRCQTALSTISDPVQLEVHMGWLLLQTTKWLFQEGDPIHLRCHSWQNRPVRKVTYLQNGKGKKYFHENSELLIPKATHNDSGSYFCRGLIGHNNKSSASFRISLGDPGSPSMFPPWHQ

His-tagged mouse FcγRIII = biological target: T3, His-tagged mouse FcγRIII (mouse, UniProt P08508 31-261)
T3 chain: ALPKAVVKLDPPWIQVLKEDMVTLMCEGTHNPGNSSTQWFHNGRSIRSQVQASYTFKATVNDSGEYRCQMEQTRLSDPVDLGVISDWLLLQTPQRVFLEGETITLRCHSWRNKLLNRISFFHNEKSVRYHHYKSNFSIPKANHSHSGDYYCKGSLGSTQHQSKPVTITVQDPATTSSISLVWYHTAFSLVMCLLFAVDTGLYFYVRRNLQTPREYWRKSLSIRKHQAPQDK

B1: Ipilimumab mIgG2a wildtype (anti-human CTLA-4 mIgG2a with an intact Fc domain) (antibody)
chain 1: QVQLVESGGGVVQPGRSLRLSCAASGFTFSSYTMHWVRQAPGKGLEWVTFISYDGNNKYYADSVKGRFTISRDNSKNTLYLQMNSLRAEDTAIYYCARTGWLGPFDYWGQGTLVTVSS
chain 2: not shown
Biotinylated mouse FcγRI
  Kd: 85.8 nM
[1]
  Kd: 388 nM
His-tagged mouse FcγRIII
  Kd: 3690 nM
